# Results reported in the supplement of paper PMC7125110.
# ± gives the standard error. This sample holds only a part of the variants without activity.
# B1: glmS ribozyme (parent)
# chain: AUAAAAGCGCCAGAACUACAGAAAUGUAGUUGACGAGGAGGAGGUUUAUCGAAUUUUCGGCGGAUGCCUCCAAA
# Experiments:
# Settings in all cases: with glucosamine-6-phosphate
# [1] = variants of: B1; test: self-cleavage kobs at 40 uM GlcN6P; higher = faster cleavage; RNA array
# Procedure, shortened: (§1)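 Barcoded ribozyme variants, transcribed in situ by E. coli RNA polymerase on sequenced MiSeq chips, were followed via a hybridised Cy3 probe at 37 °C. Glucosamine-6-phosphate ranged from 40 μM to 10 mM in HEPES/KCl/Mg(OAc)2 buffer. kobs came from decay fits to per-tile medians, and kcat and KM from weighted Michaelis–Menten fits.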
# [2] = variants of: B1; test: self-cleavage kobs at 640 uM GlcN6P; higher = faster cleavage; RNA array
# Procedure, shortened: as §1
# [3] = variants of: B1; test: self-cleavage kobs at 10000 uM GlcN6P; higher = faster cleavage; RNA array
# Procedure, shortened: as §1
# [4] = variants of: B1; test: self-cleavage kobs at 160 uM GlcN6P; higher = faster cleavage; RNA array
# Procedure, shortened: as §1
# [5] = variants of: B1; test: self-cleavage kobs at 2500 uM GlcN6P; higher = faster cleavage; RNA array
# Procedure, shortened: as §1
Variant,self-cleavage kobs at 40 uM GlcN6P [1],self-cleavage kobs at 640 uM GlcN6P [2],self-cleavage kobs at 10000 uM GlcN6P [3],self-cleavage kobs at 160 uM GlcN6P [4],self-cleavage kobs at 2500 uM GlcN6P [5]
C8U U55A C58A,< 1e-05 s⁻¹,< 1e-05 s⁻¹,< 1e-05 s⁻¹,–,–
C8U G38U U49G C50A C68G,0.00105 ± 0.00026 s⁻¹,–,0.000545 ± 0.00014 s⁻¹,–,–
G9A C70A,< 1e-05 s⁻¹,< 1e-05 s⁻¹,< 1e-05 s⁻¹,< 1e-05 s⁻¹,< 1e-05 s⁻¹
G9A U31G A39G A48C G60C,< 1e-05 s⁻¹,–,–,–,–
C10G U30G G40U,< 1e-05 s⁻¹,–,–,–,–
G9U A12G G32U G43U U45A,< 1e-05 s⁻¹,–,–,–,–
G9A C11G A53G,< 1e-05 s⁻¹,–,–,–,–
C10G U47A,< 1e-05 s⁻¹,< 1e-05 s⁻¹,–,< 1e-05 s⁻¹,–
C10G U47G,< 1e-05 s⁻¹,–,< 1e-05 s⁻¹,–,–
C8U U65C,< 1e-05 s⁻¹,< 1e-05 s⁻¹,–,–,< 1e-05 s⁻¹
G9A G41U,< 1e-05 s⁻¹,< 1e-05 s⁻¹,–,< 1e-05 s⁻¹,< 1e-05 s⁻¹
C10A G43C,< 1e-05 s⁻¹,< 1e-05 s⁻¹,< 1e-05 s⁻¹,< 1e-05 s⁻¹,–
G9A U56G,< 1e-05 s⁻¹,–,–,< 1e-05 s⁻¹,–
C10A U47G G63A,< 1e-05 s⁻¹,–,< 1e-05 s⁻¹,–,–
C10G A52G,< 1e-05 s⁻¹,–,< 1e-05 s⁻¹,–,< 1e-05 s⁻¹
C8U G40U C70A,< 1e-05 s⁻¹,–,< 1e-05 s⁻¹,–,–
C10U A33C U47G G51U C58G A64U C70A,7.66e-05 ± 2.4e-05 s⁻¹,–,0.000101 ± 2.1e-05 s⁻¹,–,–
C10A A14C U45C C68U,< 1e-05 s⁻¹,< 1e-05 s⁻¹,< 1e-05 s⁻¹,–,< 1e-05 s⁻¹
G9C G63C,< 1e-05 s⁻¹,< 1e-05 s⁻¹,–,< 1e-05 s⁻¹,< 1e-05 s⁻¹
C8U U55C,< 1e-05 s⁻¹,< 1e-05 s⁻¹,< 1e-05 s⁻¹,–,< 1e-05 s⁻¹
C10A A33U,< 1e-05 s⁻¹,–,< 1e-05 s⁻¹,–,–
G9U G41C,< 1e-05 s⁻¹,–,–,< 1e-05 s⁻¹,< 1e-05 s⁻¹
C10A U45G A53G,< 1e-05 s⁻¹,–,–,–,–
C8U U30A G62A U65A C71U,< 1e-05 s⁻¹,–,–,–,–

Variant,self-cleavage kobs at 40 uM GlcN6P [1],self-cleavage kobs at 640 uM GlcN6P [2],self-cleavage kobs at 10000 uM GlcN6P [3],self-cleavage kobs at 160 uM GlcN6P [4],self-cleavage kobs at 2500 uM GlcN6P [5]
G9A A14G G32U U65A,< 1e-05 s⁻¹,–,< 1e-05 s⁻¹,–,< 1e-05 s⁻¹
C8U G9A,< 1e-05 s⁻¹,< 1e-05 s⁻¹,< 1e-05 s⁻¹,< 1e-05 s⁻¹,< 1e-05 s⁻¹
C8U G9U,< 1e-05 s⁻¹,< 1e-05 s⁻¹,–,< 1e-05 s⁻¹,< 1e-05 s⁻¹
C10G G35A,< 1e-05 s⁻¹,< 1e-05 s⁻¹,–,< 1e-05 s⁻¹,–
G9U C16G,< 1e-05 s⁻¹,–,–,–,< 1e-05 s⁻¹
C10G C16G G40U,< 1e-05 s⁻¹,–,–,–,< 1e-05 s⁻¹
C8U C16A,< 1e-05 s⁻¹,< 1e-05 s⁻¹,< 1e-05 s⁻¹,–,< 1e-05 s⁻¹
C8U C50U C58G C61U C67U C68G,0.000528 ± 0.0001 s⁻¹,–,0.00105 ± 0.00018 s⁻¹,–,–
C8U G38C G43A G44C G63U,< 1e-05 s⁻¹,–,< 1e-05 s⁻¹,–,–
C8U C10U C50A C67G,6.47e-05 ± 2.3e-05 s⁻¹,–,0.000228 ± 4.1e-05 s⁻¹,–,–
G9U C10G A48C A52G,< 1e-05 s⁻¹,–,–,–,–
C10A G40U U54C,< 1e-05 s⁻¹,–,< 1e-05 s⁻¹,–,–
C10A G13U G37U G60A U65A,< 1e-05 s⁻¹,< 1e-05 s⁻¹,< 1e-05 s⁻¹,–,–
C10A U30C,< 1e-05 s⁻¹,< 1e-05 s⁻¹,< 1e-05 s⁻¹,< 1e-05 s⁻¹,< 1e-05 s⁻¹
G9A C61A,< 1e-05 s⁻¹,< 1e-05 s⁻¹,< 1e-05 s⁻¹,< 1e-05 s⁻¹,< 1e-05 s⁻¹
G9A G37A,< 1e-05 s⁻¹,< 1e-05 s⁻¹,< 1e-05 s⁻¹,< 1e-05 s⁻¹,< 1e-05 s⁻¹
C10U A33U A52U,< 1e-05 s⁻¹,< 1e-05 s⁻¹,< 1e-05 s⁻¹,–,–
G9C C11A,< 1e-05 s⁻¹,–,–,< 1e-05 s⁻¹,–
G9A A15G U30C,< 1e-05 s⁻¹,–,–,–,–
C8U G38U G59U C67U,< 1e-05 s⁻¹,–,–,–,–
C10G A53C A64G,< 1e-05 s⁻¹,< 1e-05 s⁻¹,< 1e-05 s⁻¹,< 1e-05 s⁻¹,< 1e-05 s⁻¹
G9U A64C,< 1e-05 s⁻¹,< 1e-05 s⁻¹,< 1e-05 s⁻¹,< 1e-05 s⁻¹,–
C10G G32C U57A,< 1e-05 s⁻¹,–,–,–,–
